Starred links: 1 amine or outer side, 2 acyl side, 3 side chain; linkers in the order of their positions; H or OH if unused. Non-standard residues stand in square brackets, D forms with d. Groups on a side chain read outwards from the residue. Primed or numbered codes have the meaning given here. No end group written: not given here. *: point of attachment. γGlu = O=C(O)[C@H](CCC(=O)[*:2])N[*:1]; Stearoyl = CCCCCCCCCCCCCCCCCC(=O)*; Palmitoyl = CCCCCCCCCCCCCCCC(=O)*; αMeF = C[C@](N)(Cc1ccccc1)C(=O)O; αMeK = C[C@](N)(CCCCN)C(=O)O; αMeS = C[C@](N)(CO)C(=O)O; PEG2′ = not defined here; Aib = CC(C)(N)C(=O)O
B1: SEQ ID NO 44 (peptide)
peptide: H[Aib]EGS[αMeF]TSDV[αMeS]S[αMeF]LEGEAAEE[αMeF]IA[αMeF]VVEGG-NH2
modifications: N-terminus assumed
SMILES: CC[C@H](C)[C@H](NC(=O)[C@](C)(Cc1ccccc1)NC(=O)[C@H](CCC(=O)O)NC(=O)[C@H](CCC(=O)O)NC(=O)[C@H](C)NC(=O)[C@H](C)NC(=O)[C@H](CCC(=O)O)NC(=O)CNC(=O)[C@H](CCC(=O)O)NC(=O)[C@H](CC(C)C)NC(=O)[C@](C)(Cc1ccccc1)NC(=O)[C@H](CO)NC(=O)[C@](C)(CO)NC(=O)[C@@H](NC(=O)[C@H](CC(=O)O)NC(=O)[C@H](CO)NC(=O)[C@@H](NC(=O)[C@](C)(Cc1ccccc1)NC(=O)[C@H](CO)NC(=O)CNC(=O)[C@H](CCC(=O)O)NC(=O)C(C)(C)NC(=O)[C@@H](N)Cc1c[nH]cn1)[C@@H](C)O)C(C)C)C(=O)N[C@@H](C)C(=O)N[C@@](C)(Cc1ccccc1)C(=O)N[C@H](C(=O)N[C@H](C(=O)N[C@@H](CCC(=O)O)C(=O)NCC(=O)NCC(N)=O)C(C)C)C(C)C
B2: SEQ ID NO 41 (peptide)
peptide: H[Aib]EGS[αMeF]TSDVSS[αMeF]LEGEAAK([γGlu-Palmitoyl])E[αMeF]IA[αMeF]VVKGG-NH2
modifications: N-terminus assumed
SMILES: CCCCCCCCCCCCCCCC(=O)N[C@@H](CCC(=O)NCCCC[C@H](NC(=O)[C@H](C)NC(=O)[C@H](C)NC(=O)[C@H](CCC(=O)O)NC(=O)CNC(=O)[C@H](CCC(=O)O)NC(=O)[C@H](CC(C)C)NC(=O)[C@](C)(Cc1ccccc1)NC(=O)[C@H](CO)NC(=O)[C@H](CO)NC(=O)[C@@H](NC(=O)[C@H](CC(=O)O)NC(=O)[C@H](CO)NC(=O)[C@@H](NC(=O)[C@](C)(Cc1ccccc1)NC(=O)[C@H](CO)NC(=O)CNC(=O)[C@H](CCC(=O)O)NC(=O)C(C)(C)NC(=O)[C@@H](N)Cc1c[nH]cn1)[C@@H](C)O)C(C)C)C(=O)N[C@@H](CCC(=O)O)C(=O)N[C@@](C)(Cc1ccccc1)C(=O)N[C@H](C(=O)N[C@@H](C)C(=O)N[C@@](C)(Cc1ccccc1)C(=O)N[C@H](C(=O)N[C@H](C(=O)N[C@@H](CCCCN)C(=O)NCC(=O)NCC(N)=O)C(C)C)C(C)C)[C@@H](C)CC)C(=O)O
B3: SEQ ID NO 42 (peptide)
peptide: H[Aib]EGS[αMeF]TSDV[αMeS]S[αMeF]LEGEAAEE[αMeF]IA[αMeF]VV[αMeK]GG-NH2
modifications: N-terminus assumed
SMILES: CC[C@H](C)[C@H](NC(=O)[C@](C)(Cc1ccccc1)NC(=O)[C@H](CCC(=O)O)NC(=O)[C@H](CCC(=O)O)NC(=O)[C@H](C)NC(=O)[C@H](C)NC(=O)[C@H](CCC(=O)O)NC(=O)CNC(=O)[C@H](CCC(=O)O)NC(=O)[C@H](CC(C)C)NC(=O)[C@](C)(Cc1ccccc1)NC(=O)[C@H](CO)NC(=O)[C@](C)(CO)NC(=O)[C@@H](NC(=O)[C@H](CC(=O)O)NC(=O)[C@H](CO)NC(=O)[C@@H](NC(=O)[C@](C)(Cc1ccccc1)NC(=O)[C@H](CO)NC(=O)CNC(=O)[C@H](CCC(=O)O)NC(=O)C(C)(C)NC(=O)[C@@H](N)Cc1c[nH]cn1)[C@@H](C)O)C(C)C)C(=O)N[C@@H](C)C(=O)N[C@@](C)(Cc1ccccc1)C(=O)N[C@H](C(=O)N[C@H](C(=O)N[C@@](C)(CCCCN)C(=O)NCC(=O)NCC(N)=O)C(C)C)C(C)C
B4: SEQ ID NO 37 (peptide)
peptide: H[Aib]EGS[αMeF]TDDV[αMeS]S[αMeF]LEGEAAK([γGlu-Palmitoyl])E[αMeF]IA[αMeF]VV[αMeK]GG-NH2
modifications: N-terminus assumed
SMILES: CCCCCCCCCCCCCCCC(=O)N[C@@H](CCC(=O)NCCCC[C@H](NC(=O)[C@H](C)NC(=O)[C@H](C)NC(=O)[C@H](CCC(=O)O)NC(=O)CNC(=O)[C@H](CCC(=O)O)NC(=O)[C@H](CC(C)C)NC(=O)[C@](C)(Cc1ccccc1)NC(=O)[C@H](CO)NC(=O)[C@](C)(CO)NC(=O)[C@@H](NC(=O)[C@H](CC(=O)O)NC(=O)[C@H](CC(=O)O)NC(=O)[C@@H](NC(=O)[C@](C)(Cc1ccccc1)NC(=O)[C@H](CO)NC(=O)CNC(=O)[C@H](CCC(=O)O)NC(=O)C(C)(C)NC(=O)[C@@H](N)Cc1c[nH]cn1)[C@@H](C)O)C(C)C)C(=O)N[C@@H](CCC(=O)O)C(=O)N[C@@](C)(Cc1ccccc1)C(=O)N[C@H](C(=O)N[C@@H](C)C(=O)N[C@@](C)(Cc1ccccc1)C(=O)N[C@H](C(=O)N[C@H](C(=O)N[C@@](C)(CCCCN)C(=O)NCC(=O)NCC(N)=O)C(C)C)C(C)C)[C@@H](C)CC)C(=O)O
B5: SEQ ID NO 43 (peptide)
peptide: H[Aib]EGS[αMeF]TSDV[αMeS]S[αMeF]LEGEAA[αMeK]E[αMeF]IA[αMeF]VVEGG-NH2
modifications: N-terminus assumed
SMILES: CC[C@H](C)[C@H](NC(=O)[C@](C)(Cc1ccccc1)NC(=O)[C@H](CCC(=O)O)NC(=O)[C@](C)(CCCCN)NC(=O)[C@H](C)NC(=O)[C@H](C)NC(=O)[C@H](CCC(=O)O)NC(=O)CNC(=O)[C@H](CCC(=O)O)NC(=O)[C@H](CC(C)C)NC(=O)[C@](C)(Cc1ccccc1)NC(=O)[C@H](CO)NC(=O)[C@](C)(CO)NC(=O)[C@@H](NC(=O)[C@H](CC(=O)O)NC(=O)[C@H](CO)NC(=O)[C@@H](NC(=O)[C@](C)(Cc1ccccc1)NC(=O)[C@H](CO)NC(=O)CNC(=O)[C@H](CCC(=O)O)NC(=O)C(C)(C)NC(=O)[C@@H](N)Cc1c[nH]cn1)[C@@H](C)O)C(C)C)C(=O)N[C@@H](C)C(=O)N[C@@](C)(Cc1ccccc1)C(=O)N[C@H](C(=O)N[C@H](C(=O)N[C@@H](CCC(=O)O)C(=O)NCC(=O)NCC(N)=O)C(C)C)C(C)C
B6: SEQ ID NO 39 (peptide)
peptide: H[Aib]EGS[αMeF]TSDVSS[αMeF]LEGEAAKE[αMeF]IA[αMeF]VVKGGK([γGlu-Palmitoyl])-NH2
modifications: N-terminus assumed
SMILES: CCCCCCCCCCCCCCCC(=O)N[C@@H](CCC(=O)NCCCC[C@H](NC(=O)CNC(=O)CNC(=O)[C@H](CCCCN)NC(=O)[C@@H](NC(=O)[C@@H](NC(=O)[C@](C)(Cc1ccccc1)NC(=O)[C@H](C)NC(=O)[C@@H](NC(=O)[C@](C)(Cc1ccccc1)NC(=O)[C@H](CCC(=O)O)NC(=O)[C@H](CCCCN)NC(=O)[C@H](C)NC(=O)[C@H](C)NC(=O)[C@H](CCC(=O)O)NC(=O)CNC(=O)[C@H](CCC(=O)O)NC(=O)[C@H](CC(C)C)NC(=O)[C@](C)(Cc1ccccc1)NC(=O)[C@H](CO)NC(=O)[C@H](CO)NC(=O)[C@@H](NC(=O)[C@H](CC(=O)O)NC(=O)[C@H](CO)NC(=O)[C@@H](NC(=O)[C@](C)(Cc1ccccc1)NC(=O)[C@H](CO)NC(=O)CNC(=O)[C@H](CCC(=O)O)NC(=O)C(C)(C)NC(=O)[C@@H](N)Cc1c[nH]cn1)[C@@H](C)O)C(C)C)[C@@H](C)CC)C(C)C)C(C)C)C(N)=O)C(=O)O

Tests used:
Assay in all cases: cell-based or functional assay
glucagon receptor = glucagon receptor (human, UniProt P47871 26-477)
[1] = target: T1, glucose-dependent insulinotropic peptide (gastric inhibitory polypeptide) receptor (human, UniProt P48546 22-466)
T1 sequence (looked up): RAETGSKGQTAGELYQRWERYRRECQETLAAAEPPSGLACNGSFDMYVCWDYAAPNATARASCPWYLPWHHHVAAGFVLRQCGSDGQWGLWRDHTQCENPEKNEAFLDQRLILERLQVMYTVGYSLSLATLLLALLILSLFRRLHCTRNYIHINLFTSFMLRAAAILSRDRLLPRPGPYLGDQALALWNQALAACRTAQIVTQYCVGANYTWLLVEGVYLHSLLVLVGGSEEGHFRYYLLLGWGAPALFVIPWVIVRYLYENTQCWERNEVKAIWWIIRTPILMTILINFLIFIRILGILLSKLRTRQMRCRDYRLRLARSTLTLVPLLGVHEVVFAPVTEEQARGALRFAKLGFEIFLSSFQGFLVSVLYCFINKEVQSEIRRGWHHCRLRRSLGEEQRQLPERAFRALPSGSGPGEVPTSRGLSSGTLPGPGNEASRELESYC

GLP-1 receptor = GLP-1 receptor (human, UniProt P43220 24-463)

glucagon receptor, sequence (P47871 26-477): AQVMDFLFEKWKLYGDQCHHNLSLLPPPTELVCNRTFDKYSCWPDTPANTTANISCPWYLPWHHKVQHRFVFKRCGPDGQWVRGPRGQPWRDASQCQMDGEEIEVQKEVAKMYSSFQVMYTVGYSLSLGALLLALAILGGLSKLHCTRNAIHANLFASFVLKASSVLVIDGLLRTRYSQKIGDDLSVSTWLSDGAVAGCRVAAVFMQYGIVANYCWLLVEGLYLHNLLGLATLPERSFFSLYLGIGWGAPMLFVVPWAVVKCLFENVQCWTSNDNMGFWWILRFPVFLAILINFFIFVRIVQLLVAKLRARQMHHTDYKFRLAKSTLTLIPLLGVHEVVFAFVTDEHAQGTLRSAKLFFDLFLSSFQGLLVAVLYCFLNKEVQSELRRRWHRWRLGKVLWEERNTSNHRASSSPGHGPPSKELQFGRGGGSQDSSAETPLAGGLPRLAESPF

| Binder | Primary assay EC50 (cAMP), n1 (glucagon receptor) [nM] | Primary assay EC50 (cAMP), n2 (glucagon receptor) [nM] | Primary assay EC50 (cAMP), n1 [1] [nM] | Primary assay EC50 (cAMP), n2 [1] [nM] | Primary assay EC50 (cAMP), Mean pM GLP-1R (GLP-1 receptor) [pM] | Primary assay EC50 (cAMP), n1 (GLP-1 receptor) [nM] | Primary assay EC50 (cAMP), n2 (GLP-1 receptor) [nM] |
| --- | --- | --- | --- | --- | --- | --- | --- |
| B1 | 31 | 31 | 31 | 31 | 6.7 | 0.0065 | 0.0069 |
| H[Aib]EGS[αMeF]TSDVSS[αMeF]LEGEAAK([PEG2′-PEG2′-γGlu-Stearoyl])E[αMeF]IA[αMeF]VVKGG-NH2 [SEQ ID NO 40] | 85 | 26 | 85 | 26 | 1170 | 1.8 | 0.57 |
| H[Aib]EGSFTSDV[αMeS]S[αMeF]LEGEAAK([PEG2′-PEG2′-γGlu-Stearoyl])E[αMeF]IA[αMeF]VV[αMeK]GG-NH2 [SEQ ID NO 45] | 26 | 26 | 26 | 26 | 3560 | 3.8 | 3.3 |
| B2 | 94 | 28 | 94 | 28 | 147 | 0.24 | 0.051 |
| H[Aib]EGS[αMeF]TSDVSS[αMeF]LEGEAAKE[αMeF]IA[αMeF]VVKGGK([PEG2′-PEG2′-γGlu-Stearoyl])-NH2 [SEQ ID NO 38] | 25 | 25 | 25 | 25 | 72 | 0.062 | 0.082 |
| B3 | 31 | 31 | 31 | 31 | 8.7 | 0.0069 | 0.011 |
| B4 | 92 | 28 | 92 | 28 | 4500 | 7.3 | 1.7 |
| B5 | 31 | 31 | 31 | 31 | 0.6 | 0.00045 | 0.00071 |
| B6 | 27 | 27 | 27 | 27 | 33 | 0.033 | 0.033 |
